Data set [1] concerns the molecule itself. As to the kind of experiment: AUC; sedimentation velocity (42,000 rpm) and equilibrium, 20 C, 20 mM Tris (pH 8.5), 250 mM NaCl, 5 mM DTT (low-salt condition), 0.05 to 1 mg/ml (complex also 8 mg/ml); global fit by SEDPHAT: monomer-dimer self-association (dimer to monomers) or A + B <-> AB hetero-association.
Data set [2] deals with the molecule itself. The data set is described as follows: SEC; Superose 12 analytical gel filtration of nickel-purified protein, 20 mM Tris (pH 7.5), 250 mM NaCl, 5 mM DTT, 0.5 mL/min; migration compared with the C54S/C83A control.

For orientation: stoichiometry N means the number of molecules, sites or subunits per partner or assembly.

B1: FLASH NTD C54S/C83A/N101A/L104A/N108A, C-terminally hexahistidine-tagged (domain or fragment, human, UniProt Q9UKL3 51-137, looked up)
chain: SRNSLDLYEEILTEEGTAKEATYNDLQVEYGKAQLQMKELMKKFKEIQTQAFSAINEAQSLKKNISALIKTARVEINRKDEEISNLH
notes: FLASH N-terminal domain, human, residues 51-137, C54S/C83A/N101A/L104A/N108A; also called N101A/L104A/N108A mutant
As for B1, the “stoichiometry N” value in data set [1] is around 3.

B2: FLASH NTD C54S/C83A/L118A/I119A, C-terminally hexahistidine-tagged (domain or fragment, human, UniProt Q9UKL3 51-137, looked up)
chain: SRNSLDLYEEILTEEGTAKEATYNDLQVEYGKAQLQMKELMKKFKEIQTQNFSLINENQSLKKNISAAAKTARVEINRKDEEISNLH
notes: FLASH N-terminal domain, human, residues 51-137, L118A/I119A in the background of C54S/C83A; also called FLASH NTD L118A/I119A mutant
Take B2: the binding result in data set [2] was “binds”.

B3: FLASH NTD C54S/C83A/Y73A/L76A/Y80A, C-terminally hexahistidine-tagged (domain or fragment, human, UniProt Q9UKL3 51-137, looked up)
chain: SRNSLDLYEEILTEEGTAKEATANDAQVEAGKAQLQMKELMKKFKEIQTQNFSLINENQSLKKNISALIKTARVEINRKDEEISNLH
notes: also called Y73A/L76A/Y80A mutant
For B3, the binding result in data set [2] was “binds”.

B4: FLASH NTD C54S/C83A/R128A/K129A/D130A, C-terminally hexahistidine-tagged (domain or fragment, human, UniProt Q9UKL3 51-137, looked up)
chain: SRNSLDLYEEILTEEGTAKEATYNDLQVEYGKAQLQMKELMKKFKEIQTQNFSLINENQSLKKNISALIKTARVEINAAAEEISNLH
notes: also called R128A/K129A/D130A mutant
Take B4: in data set [2], the binding result was “binds”.

B5: FLASH NTD C54S/C83A/K88A/K92A/K95A, C-terminally hexahistidine-tagged (domain or fragment, human, UniProt Q9UKL3 51-137, looked up)
chain: SRNSLDLYEEILTEEGTAKEATYNDLQVEYGKAQLQMAELMAKFAEIQTQNFSLINENQSLKKNISALIKTARVEINRKDEEISNLH
notes: also called K88A/K92A/K95A mutant
With B5, the binding result in data set [2] is given as “binds”.

Values taken from PMC5636114 (PLoS ONE, 2017).
